Assay results as given in the nanobody polyreactivity screen of Harvey et al. (2022).

Experiment: yeast display, Sf9 membrane polyspecificity reagent, FACS + sequencing; frameworks hold sequencing errors
How it was run: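 Polyreactivity labels are assigned by the sorting gate from which each nanobody was recovered. The gates were low and high (top ~1%), set on anti-HA fluorescence for expression and streptavidin fluorescence for reagent binding. Before sorting, galactose-induced (36–48 hours) yeast display cells were stained for 1 hour at 4 °C with 10% biotinylated, detergent-solubilized Sf9 membrane reagent.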

| Sequence | polyreactivity (PSR sort gate) |
| --- | --- |
| QVQLVESGGGLVQAGGRLRLSCAASGSIFFYYAMGWYRQAPGKERELVADITSGGTTYYADSVKGRFTISRDNAKNTVSLQMNSLIPEDTAVYYCNAGLYPGQRPDYTNYSSDYWGQGTQVTVSS | low polyreactivity |
| QVQLVESGGGLVQAGGRLRLSCAASGSIFIYNAMGWYRQAPGKERELVATSSSGTRTYYADSVKGRFTISRDNAQNTVYFQMNSLKPEDTAVYNCAADGPFRRTYGDWGQGPQVTVSS | low polyreactivity |
| QVQLVESGGGLVQAGGRLRLSCAASGSIFNANAMGWYRHAPGKEREMVAGIRSGSSTNYADSVKGRFTISRDNAKNTVYLQMNSLKPEDTAVYYCATEGYWVYGFDDEYWGQGTQVTVSS | low polyreactivity |
| QVQLVESGGGLVQAGGRLRLSCAASGSIFQPYAMGWSRQAPGKERELVAAINGRGGSTHYADSVKGRFTISRDNAKNTVYLQMNSLKPEDTAVYYWNRPKWYDGDYWGQGTQVTVSS | high polyreactivity |
| QVQLVESGGGLVQAGGRLRLSCAASGSIFRPNPMGLYRQAPGKDRELVAAITWSGDSTYYADSVKGRFTISRDNAKNTVYLQMNSLKPEDTAVYYCAADFTYQGYSANDYWGQGTQVTVSS | low polyreactivity |
| QVQLVESGGGLVQAGGRLRLSCAASGSIFVGNTMGWYRQAPGKERELVAAISRTARTYYADSVKGRFTISRDNAKNTVYLQMNSLKPEDTAVYYCARASTQVKYGYEYWGQGTQVTVSS | high polyreactivity |
| QVQLVESGGGLVQAGGRLRLSCAASGSIFVKYAMGCYRHAPGKERELVATIRRSGTSTYYADSVKGRFTISRDNAMNTVYLQMNSLKPEDPAVYYCAALRSLLYRTYGYWGQGTQVTVSS | low polyreactivity |
| QVQLVESGGGLVQAGGRLRLSCAASGSIFYYNAMGWYRQAPGKERELVAAISRGGRTYYADSVKGRFTISRDNEKNTVYLQMNSLKPEDTAVYYCSARWSGKSINTISFDYWGQGTQVTVSS | high polyreactivity |
| QVQLVESGGGLVQAGGRLRLSCAASGSILGDNAMGWYRQAPGKERELVAAISYRGGSTYADSVKGRFTISRDNATNTVYLQKNSLKPDDTAVYYCNKTDIDDSQYREYEYWGQGTQVTVSS | low polyreactivity |
| QVQLVESGGGLVQAGGRLRLSCAASGSIYPDKAMGWYRQAPGKERELVAAIDKGTGSTNYADSVKGRFTISRDNAKITVNLQLNSLKPEDTAVYYCAKGWLTPRGGAWYDDYWGQGTQVTVSS | low polyreactivity |
| QVQLVESGGGLVQAGGRLRLSCAASGSTFARNAMGWYRQAPGKERELVPAISRGGSTYYADSVKGRFTISRDNAKNTVYLEMNSLKPEDTAVYYCAVYNFHYGYVWYPYDYWGQGTEVTVSS | high polyreactivity |
| QVQLVESGGGLVQAGGRLRLSCAASGSTFATYTMGWYRQPPGKERELVAAISVSGSRTYYADSVKGRFSISRDNAKNTVYLQMNSLKPEDTAVYYCAAANHKGSRMDYWGPGTQVTVSS | high polyreactivity |
| QVQLVESGGGLVQAGGRLRLSCAASGSTFGSNVMGWYRQAPGKERELVASISSGGRTKYADSVKGRFTISRDNAKNTVYLQMNSLKPEDTAVYYCNTRLRKKNSRDYDYWGQGTQVTVSS | low polyreactivity |
| QVQLVESGGGLVQAGGRLRLSCAASGSTFGWYARGWYRQAPGKERELVATISSGGSTYYADSVKGRFTISRDNAKNTVSLQMNSLKPEDTAVYYCAARIGTGVLPGRGANSHMDFWGHGTQVTVSS | low polyreactivity |
| QVQLVESGGGLVQAGGRLRLSCAASGSTFHHNVMGWYRQAPGKEWELVAAITSSGGSTYYADSVKGRFTISRDNAKNTVYLQMNSLKPEDTAVYYCAKDKLIFYRVGSDYWGQGTQVNVSS | low polyreactivity |
| QVQLVESGGGLVQAGGRLRLSCAASGSTFRGYAMGWYRQAPGKEREFVAAITYTGSSTTYADSVIGRFTISRDNAKTTVYLQMNSLKPEYTADFYCAARYVASRIYKRYYWGQGTQVTVSS | high polyreactivity |
| QVQLVESGGGLVQAGGRLRLSCAASGSTFRVYAMGWYRQAPGKERELFAAIRSGGGTNYADSVKGRFTISRDNAKNTVYLQMNSLKPEDTAVYYCAREAATDISPGYDYWGQGTQVTVSS | low polyreactivity |
| QVQLVESGGGLVQAGGRLRLSCAASGSTFSLNTMGWYRQAPGKERELFAAIRWRSGSTYYADSVKGRFTISRDNAKNTVYLHKNRLKPEDNAVYYCAVTARVTFLLRDGGRAEFDYWGQGTQVTVSS | low polyreactivity |
| QVQLVESGGGLVQAGGRLRLSCAASGSTFSRNTMGWYRQAPGKESELVAAISKSGGRTYYADSVKGRFTISRDNAKNTVYLQMNSLKPEDTAVYYCNGVKLLGTRGYGYLGQGTQVTVSS | high polyreactivity |
| QVQLVESGGGLVQAGGRLRLSCAASGSTFSYYAMGWYRHAPGKERELVAAITSSGSRTYYADSVKGRFTISRDKAKNTVYLQMNSLKPEDTAVYYCAAVYVYRTSYLISLYDYGYWGQGTQVTVSS | high polyreactivity |
| QVQLVESGGGLVQAGGRLRLSCAASGSTFWSKVMGWYRQAPGKERELVSAISYGGVTTSYADSVKGRFTISRDNAKNTVYLQMTSLKPEDTAVYYCATDYVGYYFYESDYWGQGTQVTVSS | low polyreactivity |
| QVQLVESGGGLVQAGGRLRLSCAASGSTFYLNAMGWYRQAPGKERELVAAISSGGRTYYADSVKGRFTISRDNAKNTVYLQMTSLKPEDTAVYYCNAVRYLRGAYNYWGQGTQVTVSS | high polyreactivity |

| Sequence | polyreactivity (PSR sort gate) |
| --- | --- |
| QVQLVESGGGLVQAGGRLRLSCAASGSTLSYYAMGWYIQAPGKERELVAAISFSGGSTYYADSVKGRFTISRDNAKNTVYLQMNSLKPEDTAVYYCNAPPLYRDEYWGQGTQVTVSS | high polyreactivity |
| QVQLVESGGGLVQAGGRLRLSCAASGSTYYNAMGWYRQAPGKERELVAAIRFRSGSTYYADSVKGRFTISRDNAKNTVYLQMNSLKPEDTAVYYCAAYCRRSYVDSYDIRFDYWGQGTQVTVSS | high polyreactivity |
| QVQLVESGGGLVQAGGRLRLSCAASGTIFYWNAMVWYRQATGKERELVAAINSGDSTNYADSVKGRFTISRDNAKNTVYFQMYSLKPEDTAVYYCAASIYAALNGGPGYDYWGQGTQVTVSS | low polyreactivity |
| QVQLVESGGGLVQAGGRLRLSCAASGTTIVYYAMGWSRQAPGKEREMVAAISWSGTRTYYADSVKGRFTISRDTGKNSVYLQMNSLIPEDTAVYYCAAKGGYSTGRPTFTIFNYWGQGTQVTVSS | high polyreactivity |
| QVQLVESGGGLVQAGGRLRLSCAASGYTFRRNAMGWYRQAPGKERELVAAITWRGTSTYYADSVKGRFTISRDNAKNTVYLQMNSLKPEDTAVYYCAARFYSGPGGYTMYYWGQGTQVTVSS | high polyreactivity |
| QVQLVESGGGLVQAGGRLRLSCAATGRTFSYNAMGWYRQAPGKERELVAAITTNSGSRTYYADSVKGRFTISRDNAKNTVYLQMNSLKPEDTAVYYCAADGPVVSGYYWGQGTQVTVSS | high polyreactivity |
| QVQLVESGGGLVQAGGRLRLSCAGSGSTSYGYAMGWYRQAPGKERELVAAITSGGRTYYADSVKGRFTISRDNAKNTVYFQMNSLKPEDTAVYYCAAVRALRKVRDYYYWGQGTQVTVSS | high polyreactivity |
| QVQLVESGGGLVQAGGRLRLSCAPSGSTFTANDMGWYRQAPVKERELVAAISISGTRTYYADSVKGRFTISRDNAKNTVYLQMNSLKPEDTAVYYGNKATSYFTVRGYDYWGQGTQVTVSS | high polyreactivity |
| QVQLVESGGGLVQAGGRLRLSCEASGNIFGYYAMGWSRQAPGKERELVAAITRSGSSTYYADSVKGRFTISRDNAKNNVFLQMNSLKPEDTAVYYCSADNFYQAYGYWGQGTQVTVSS | low polyreactivity |
| QVQLVESGGGLVQAGGRLRLSSAASGFTFNKYGMGWYRQAPRKERELVAAISGSGGSTRYADSVKGRFTISRDNAKNTVYLLMNSLKPEDTAVYFCAKRSQTRYYYWGQGTQVTVSS | high polyreactivity |
| QVQLVESGGGLVQAGGRLRLTCAASGRNYNGNAMGRYRQAPGTERELVAGIDSDGSTNYADSVKGRFTISRDNAKNTVYLQMNSLKPDDTAGYYCAAVQGYRFYEYYYWGQGTQVTVSS | low polyreactivity |
| QVQLVESGGGLVQAGGRLRLTCAASGSIFFYAMGWYRQAPGKERELVAGITTSGGSTYYADSVKGRFTISRDNAKNTVYLQMYSLKPEYTAVYYCAADGSRAGQEGNDYWGQGTQVTVSS | low polyreactivity |
| QVQLVESGGGLVQAGGRLRLTCAASGSTFFTNAMGWYRQAPGKERELVAAITINDGSTFYADSVKGRFTISRDNAKKTVYLQMNSLKPEDTAVYYCNADGVDLYDFWGQGTQVTVSS | low polyreactivity |
| QVQLVESGGGLVQAGGRLRLTCAASGSTFGDYAMGWYRQAPGKERELVAAITYSGGRTYYADSVKGRFTISRDNAKNTGDLQMNRLKPEDTAVYYCAARVRYPSRRGNYDYWGEGTQVTVSS | high polyreactivity |
| QVQLVESGGGLVQAGGRLRLTCAASGSTFPTYAMGWYRQAPGKERELVAAISTRGGSTYYADSVKGRFTISRDNAKNTVYLQMNSLKPEDTAVYYCATGKSLGRYHYEYWGQGSQVTVSS | low polyreactivity |
| QVQLVESGGGLVQAGGRLSLSCAASGSTLWGYAMGWYRQAPGKERELVATINQSAGSTYYADSVKGRFTISRDHAKNSVYLQMHSLKPEVTAVYYCAAEALVQFSYDYWGQGTQVTVSS | low polyreactivity |
| QVQLVESGGGLVQAGGRVRLSCAASVSTFKQYSMGWYRQATGKERELVAAITRGGRTNYAYSVKGRFTISRDNAKNTVSLQMNSLKQEDTAVYYCAKLLSGYGRWWYDYWGQGTQVTLSS | high polyreactivity |
| QVQLVESGGGLVQAGGSDRLSCAASGRTFDRYAMGWYRQAPGKERELVAAISRGGSTNYADSVKGRFTISRDNAKNTVYLQMNSLKPEDTAVYYCAARVSFLHLRRAYDYWGQGSQVTVSS | high polyreactivity |
| QVQLVESGGGLVQAGGSFRLSCPASGGPVDTYVMGCYRQARGKERELVAVITRGASTYYADSVKGRFTITRDNAKNTVYLQNNRLKPEDTAVYYCAAAFYSPDFYRFWYSFDYWGQGTQVTVSS | low polyreactivity |
| QVQLVESGGGLVQAGGSHPLSCAASGSIFDLYDMGWYRQAPGKERELVAAISLIGGSTSYADSVKGRFTISRDNAKNSVYLQMNSLKPEDTAVYYCAVDSRPYLRDYWGQGTQVTISS | low polyreactivity |
| QVQLVESGGGLVQAGGSHRFSCAASGRIIYTNAMGWYRQAPGKEREFVAVISWGGDTTYYADSVKGRFTISRDNAKNTVYLQMNSLKPEDTAVYYCNAEWGPTYEIYDSWGPGTQVTVSS | low polyreactivity |
